Experiment [1] concerns the target HIF-1 three-domain protein. Kind of experiment: cell-based or functional assay.
Experiment [2] concerns the target T1, HIF-1α PAS-B domain (UniProt Q16665 238-349, limits assumed, labelled for MST (label not named)).
T1 construct: domain: PAS-B; 25 nM labelled protein in the assay; also called HIF-1α PAS-B protein; labelled HIF-1α PAS-B
Nature of the experiment: MST (microscale thermophoresis), labelled HIF-1α PAS-B [part 3 of 14) B].
Description: (§1) An aliquot of labelled HIF-1α PAS-B was thawed on ice and diluted to 50 nM with HIF MST assay buffer, before being centrifuged at 12,000 rpm for 15 minutes. […] Samples were loaded into NanoTemper® Monolith NT.115 premium treated capillaries and measurements were carried out using a Monolith NT.115 system at 25° C. using 50% MST power and 50% LED power. Data was analysed by NanoTemper® analysis software. Binding curves were fitted using GraphPad Prism 8 software.

The target of experiment [3] is T1, HIF-1α PAS-B domain. Kind of experiment: MST (microscale thermophoresis), labelled HIF-1α PAS-B [part 4 of 5].
Description: as §1
The target in experiment [4] is T1, HIF-1α PAS-B domain. Kind of experiment: MST (microscale thermophoresis), labelled HIF-1α PAS-B [part 3 of 5]. (In general: In MST a laser heats a spot of the sample, and binding alters the fluorescence response.)
Description: as §1

This note sets out measurements from patent US20260062447A1 (UNIVERSITY OF SOUTHAMPTON, published 2026).

T1 sequence (Q16665 238-349 limits assumed): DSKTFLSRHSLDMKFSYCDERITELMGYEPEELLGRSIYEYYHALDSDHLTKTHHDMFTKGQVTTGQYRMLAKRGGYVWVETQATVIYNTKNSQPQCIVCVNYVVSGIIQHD

Regarding CLLFVY (cyclic peptide (cyclo-)) [cyclo-CLLFVY (Cys leu leu phe val tyr)], the “IC50 of inhibition of FAM-HRE DNA binding (fluorescence polarization)” value in experiment [1] is 76.5 µM.

B1: Cyclo-CLLYVY (peptide)
cyclic peptide: CLLYVY
modifications: cyclic (cyclo-) peptide
notes: also called Y derivative at the phenylalanine position; Cys leu leu tyr val tyr
Consider B1, for which the Kd (in general, the constant that tells how readily two partners part at equilibrium) in the experiment with HIF-1α PAS-B domain [2] is above 200 µM.

B2: cyclic peptide Met leu leu phe val tyr (peptide)
peptide: MLLFVY
modifications: cyclic peptide
notes: Comparative purposes only; also called M (methionine) cysteine derivative
On to B2, for which, in the experiment with HIF-1α PAS-B domain [3], the binding result is reported as “no binding”.

B3: cyclic peptide Ser leu leu phe val tyr (peptide)
peptide: SLLFVY
modifications: cyclic peptide
notes: Comparative purposes only; also called S (serine) cysteine derivative
For the molecule B3, the binding result with HIF-1α PAS-B domain [4] is recorded as “no binding”.

B4: cyclic peptide Thr leu leu phe val tyr (peptide)
peptide: TLLFVY
modifications: cyclic peptide
notes: Comparative purposes only; also called T (threonine) cysteine derivative
On to B4, for which the binding result with HIF-1α PAS-B domain [4] was “no binding”.
